Paper PMC10688784, “In vitro characterization of the phage lysis protein MS2-L” (Microbiome Research Reports, 2023)
Where two headings read alike, the source gives them in different places.

Assays:
[1] = biological target: MS2-Lp23, MS2-L truncated of the first 22 amino acids, C-terminal StrepII-tag (MS2 phage); assay: native MS; LILBID-MS; derivatives CF expressed in standard A19 S30 lysate with 0.4% Brij78, purified; 50 mM ammonium acetate pH 7.4 with 0.02% Brij78; laser 10-20 mJ
[2] = biological target: MS2-Lp23, MS2-L truncated of the first 22 amino acids, C-terminal StrepII-tag (MS2 phage); assay: native MS; LILBID-MS; derivatives CF expressed in standard A19 S30 lysate with 60 µM DMPG nanodiscs, purified; 50 mM ammonium acetate pH 7.4; laser 10-20 mJ
[3] = biological target: MS2-Lp26, MS2-L truncated of the first 25 amino acids, C-terminal StrepII-tag (MS2 phage); assay: native MS; LILBID-MS; derivatives CF expressed in standard A19 S30 lysate with 0.4% Brij78, purified; 50 mM ammonium acetate pH 7.4 with 0.02% Brij78; laser 10-20 mJ
[4] = biological target: MS2-Lp26, MS2-L truncated of the first 25 amino acids, C-terminal StrepII-tag (MS2 phage); assay: native MS; LILBID-MS; derivatives CF expressed in standard A19 S30 lysate with 60 µM DMPG nanodiscs, purified; 50 mM ammonium acetate pH 7.4; laser 10-20 mJ
[5] = biological target: MS2-Lp29, MS2-L truncated of the first 28 amino acids, C-terminal StrepII-tag (MS2 phage); assay: native MS; LILBID-MS; derivatives CF expressed in standard A19 S30 lysate with 0.4% Brij78, purified; 50 mM ammonium acetate pH 7.4 with 0.02% Brij78; laser 10-20 mJ
[6] = biological target: MS2-Lp29, MS2-L truncated of the first 28 amino acids, C-terminal StrepII-tag (MS2 phage); assay: native MS; LILBID-MS; derivatives CF expressed in standard A19 S30 lysate with 60 µM DMPG nanodiscs, purified; 50 mM ammonium acetate pH 7.4; laser 10-20 mJ
[7] = biological target: MS2-Lp32, MS2-L truncated of the first 31 amino acids, C-terminal StrepII-tag (MS2 phage); assay: native MS; LILBID-MS; derivatives CF expressed in standard A19 S30 lysate with 0.4% Brij78, purified; 50 mM ammonium acetate pH 7.4 with 0.02% Brij78; laser 10-20 mJ
[8] = biological target: MS2-Lp32, MS2-L truncated of the first 31 amino acids, C-terminal StrepII-tag (MS2 phage); assay: native MS; LILBID-MS; derivatives CF expressed in standard A19 S30 lysate with 60 µM DMPG nanodiscs, purified; 50 mM ammonium acetate pH 7.4; laser 10-20 mJ
[9] = biological target: MS2-Lp35, MS2-L truncated of the first 34 amino acids, C-terminal StrepII-tag (MS2 phage); assay: native MS; LILBID-MS; derivatives CF expressed in standard A19 S30 lysate with 0.4% Brij78, purified; 50 mM ammonium acetate pH 7.4 with 0.02% Brij78; laser 10-20 mJ
[10] = biological target: MS2-Lp35, MS2-L truncated of the first 34 amino acids, C-terminal StrepII-tag (MS2 phage); assay: native MS; LILBID-MS; derivatives CF expressed in standard A19 S30 lysate with 60 µM DMPG nanodiscs, purified; 50 mM ammonium acetate pH 7.4; laser 10-20 mJ
[11] = biological target: T1, chaperone DnaJ with C-terminal His6-tag (UniProt P08622 1-376); assay: pull-down; conditions: one partner purified
T1 construct: Chaperone DnaJ; the dnaJ gene cloned into NdeI/XhoI of pET21a; source: E. coli T7 Express, purified (Ni-NTA); not shown: His6, C-terminal, kept
T1 sequence (looked up): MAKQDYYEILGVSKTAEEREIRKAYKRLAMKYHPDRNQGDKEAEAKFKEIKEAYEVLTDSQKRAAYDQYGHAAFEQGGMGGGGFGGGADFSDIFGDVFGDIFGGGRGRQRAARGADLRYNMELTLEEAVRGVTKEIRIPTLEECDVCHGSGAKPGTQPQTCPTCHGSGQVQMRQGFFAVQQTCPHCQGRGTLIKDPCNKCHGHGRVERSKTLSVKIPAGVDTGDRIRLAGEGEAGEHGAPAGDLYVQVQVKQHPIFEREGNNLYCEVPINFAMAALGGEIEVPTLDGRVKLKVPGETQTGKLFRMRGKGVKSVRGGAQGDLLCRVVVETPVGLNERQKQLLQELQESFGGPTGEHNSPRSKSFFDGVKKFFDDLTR

[12] = biological target: MS2-L, full-length phage lysis protein with C-terminal StrepII-tag (MS2 phage) (UniProt P03609); assay: native MS; LILBID-MS; derivatives CF expressed in standard A19 S30 lysate with 60 µM DMPG nanodiscs, purified; 50 mM ammonium acetate pH 7.4; laser 10-20 mJ
[13] = biological target: MS2-L, full-length phage lysis protein with C-terminal StrepII-tag (MS2 phage) (UniProt P03609); assay: as above; remark: listed apart in the source

Q: Which stoichiometry N [1] does the source give for “MS2-Lp23, MS2-L truncated of the first 22 amino acids, C-terminal StrepII-tag (domain or fragment)” here?
A: < 4 monomers

Q: What about the stoichiometry N [2] of the same molecule?
A: > 10 monomers

Q: For “MS2-Lp26, MS2-L truncated of the first 25 amino acids, C-terminal StrepII-tag (domain or fragment)”, which stoichiometry N [3] is on record?
A: < 4 monomers

Q: What about the stoichiometry N [4] of the same molecule?
A: > 10 monomers

Q: “MS2-Lp29, MS2-L truncated of the first 28 amino acids, C-terminal StrepII-tag (domain or fragment)” was tested. Which stoichiometry N [5] did it give?
A: < 4 monomers

Q: What about the stoichiometry N [6] of the same molecule?
A: > 10 monomers

Q: How did the stoichiometry N [7] turn out when “MS2-Lp32, MS2-L truncated of the first 31 amino acids, C-terminal StrepII-tag (domain or fragment)” was run?
A: < 4 monomers

Q: And the stoichiometry N [8]?
A: > 10 monomers

Q: “MS2-Lp35, MS2-L truncated of the first 34 amino acids, C-terminal StrepII-tag (domain or fragment)” was tested. Which stoichiometry N [9] did it give?
A: < 10 monomers

Q: And the stoichiometry N [10]?
A: > 10 monomers

B1: MS2-L, full-length phage lysis protein with C-terminal StrepII-tag (natural protein, MS2 phage, UniProt P03609 1-75, looked up)
chain: MKTRFPQQSQQTPASTNRRRPFKHEDYPCRRQQRSSTLYVLIFLAIFLSKFTNQLLLSLLEAVIRTVTTLQQLLT
notes: Lysis protein L of bacteriophage MS2, 75 amino acids; codon exchange GAA (Glu) to AAA (Lys) at the first position after the start methionine; In nanodisc samples the peptide sits in MSP1E3D1/DMPG nanodiscs; also called full-length MS2-L; full-length toxin MS2-L; source: also unpurified in the reaction mix; not shown: StrepII, C-terminal, kept
Q: Does B1 bind [11]?
A: binds

Q: And the stoichiometry N [12]?
A: < 12 monomers

Q: What about the stoichiometry N [13] of the same molecule?
A: > 10 monomers
